Assays:
Test in all cases: ITC; WIPI3 proteins in the sample cell, GB1-tagged ATG2A fragments in the syringe; 25 °C; 50 mM Tris-HCl pH 8.0, 100 mM NaCl, 1 mM EDTA, 1 mM DTT; model of one binding site
Details in all cases: both partners purified
Hsv2 = Hsv2 (yeast, UniProt P50079 1-448)
[1] = target: T1, WIPI3 (full-length, wild-type) (human, UniProt Q5MNZ6 1-344)
T1 construct: human WIPI3, full length; also called wild-type WIPI3; full-length WIPI3; source: E. coli BL21(DE3), purified (Ni2+-Sepharose, size-exclusion chromatography)
T1 sequence (Q5MNZ6 whole entry): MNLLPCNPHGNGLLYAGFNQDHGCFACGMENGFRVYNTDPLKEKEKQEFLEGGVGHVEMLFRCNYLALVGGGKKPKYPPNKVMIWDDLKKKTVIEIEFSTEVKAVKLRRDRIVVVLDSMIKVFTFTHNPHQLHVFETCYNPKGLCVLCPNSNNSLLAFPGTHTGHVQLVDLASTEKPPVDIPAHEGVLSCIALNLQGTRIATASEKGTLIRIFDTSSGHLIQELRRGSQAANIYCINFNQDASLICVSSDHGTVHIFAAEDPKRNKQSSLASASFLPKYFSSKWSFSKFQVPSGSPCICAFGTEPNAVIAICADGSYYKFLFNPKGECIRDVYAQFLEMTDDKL

WIPI3-Δloop = target: T2, WIPI3-Δloop (human, UniProt Q5MNZ6 1-344, Blade 2 B-C loop (75-80) deleted | Blade 6 C-D loop (264-281) deleted)
T2 construct: human WIPI3 with deletions of the Blade 2 B-C loop (75-80) and the Blade 6 C-D loop (264-281); also called loop-deletion mutant of WIPI3; source: E. coli BL21(DE3), purified (Ni2+-Sepharose, size-exclusion chromatography)
T2 sequence (Q5MNZ6 other isoform, or with tags, fused parts or gaps with the stated changes): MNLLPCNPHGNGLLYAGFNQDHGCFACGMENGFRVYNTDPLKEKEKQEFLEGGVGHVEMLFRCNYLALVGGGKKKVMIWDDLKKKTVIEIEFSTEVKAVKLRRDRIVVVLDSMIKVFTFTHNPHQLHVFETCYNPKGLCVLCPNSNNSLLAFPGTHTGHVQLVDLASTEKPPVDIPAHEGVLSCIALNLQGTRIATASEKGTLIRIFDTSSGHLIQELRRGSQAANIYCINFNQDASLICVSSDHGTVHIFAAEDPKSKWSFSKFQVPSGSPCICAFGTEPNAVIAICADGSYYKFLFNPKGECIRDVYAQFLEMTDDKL

Hsv2, sequence (P50079 whole entry): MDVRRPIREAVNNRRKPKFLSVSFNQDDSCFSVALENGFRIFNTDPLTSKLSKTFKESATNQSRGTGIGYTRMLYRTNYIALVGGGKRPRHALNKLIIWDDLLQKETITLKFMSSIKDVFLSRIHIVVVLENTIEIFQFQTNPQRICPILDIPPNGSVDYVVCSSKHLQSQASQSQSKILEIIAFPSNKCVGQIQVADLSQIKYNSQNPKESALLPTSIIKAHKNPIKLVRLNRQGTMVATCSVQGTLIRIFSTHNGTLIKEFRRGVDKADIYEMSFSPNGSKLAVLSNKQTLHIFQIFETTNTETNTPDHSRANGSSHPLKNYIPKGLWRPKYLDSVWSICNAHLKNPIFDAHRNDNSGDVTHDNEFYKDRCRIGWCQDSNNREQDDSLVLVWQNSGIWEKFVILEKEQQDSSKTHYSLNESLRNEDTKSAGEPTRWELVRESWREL

B1: GB1-tagged ATG2A short fragment (1374-1404), the WIR-peptide (peptide, UniProt Q2TAZ0 1374-1404, looked up)
chain: PRDGEPVVTQLHPGPIVVRDGYFSRPIGSTD
notes: human ATG2A residues 1374-1404; In the crystal (PDB 6KLR) the same stretch stood fused to the N-terminus of WIPI3-Δloop without the GB1 tag; source: E. coli BL21(DE3), purified (Ni2+-Sepharose, size-exclusion chromatography), tag not cleaved
Kd (Hsv2): 21.5 ± 2 µM
Kd [1]: 8.7 ± 0.1 µM
Kd (WIPI3-Δloop): 6.4 ± 0.7 µM
stoichiometry N (WIPI3-Δloop): 1

B2: GB1-tagged WIR-peptide V1380A (peptide, UniProt Q2TAZ0 1374-1404, looked up)
chain: PRDGEPAVTQLHPGPIVVRDGYFSRPIGSTD
notes: human ATG2A residues 1374-1404 with V1380A; source: E. coli BL21(DE3), purified (Ni2+-Sepharose, size-exclusion chromatography), tag not cleaved
binding result (WIPI3-Δloop): binds

B3: GB1-tagged WIR-peptide T1382A (peptide, UniProt Q2TAZ0 1374-1404, looked up)
chain: PRDGEPVVAQLHPGPIVVRDGYFSRPIGSTD
notes: human ATG2A residues 1374-1404 with T1382A; source: E. coli BL21(DE3), purified (Ni2+-Sepharose, size-exclusion chromatography), tag not cleaved
binding result (WIPI3-Δloop): binds

B4: GB1-tagged WIR-peptide T1382Q (peptide, UniProt Q2TAZ0 1374-1404, looked up)
chain: PRDGEPVVQQLHPGPIVVRDGYFSRPIGSTD
notes: human ATG2A residues 1374-1404 with T1382Q; source: E. coli BL21(DE3), purified (Ni2+-Sepharose, size-exclusion chromatography), tag not cleaved
binding result (WIPI3-Δloop): binds

B5: GB1-tagged WIR-peptide V1380Q (peptide, UniProt Q2TAZ0 1374-1404, looked up)
chain: PRDGEPQVTQLHPGPIVVRDGYFSRPIGSTD
notes: human ATG2A residues 1374-1404 with V1380Q; source: E. coli BL21(DE3), purified (Ni2+-Sepharose, size-exclusion chromatography), tag not cleaved
binding result (WIPI3-Δloop): binds

B6: GB1-tagged ATG2A long fragment (1358-1404) (domain or fragment, human, UniProt Q2TAZ0 1358-1404, looked up)
chain: DSDEFCILDAPGLGIPPRDGEPVVTQLHPGPIVVRDGYFSRPIGSTD
notes: human ATG2A residues 1358-1404; source: E. coli BL21(DE3), purified (Ni2+-Sepharose, size-exclusion chromatography), tag not cleaved
Kd [1]: 8.6 ± 0.1 µM
Kd (WIPI3-Δloop): 6.3 ± 0.2 µM

Reference: publication PMC7264293, “Multi-site-mediated entwining of the linear WIR-motif around WIPI β-propellers for autophagy” (Nature Communications, 2020)
